Results on 17 molecules are retold here after US20210206856A1 (PANDION OPERATIONS, published 2021).

Test [1] concerns the target T1, human MAdCAM expressed on cells (human, UniProt Q13477 19-382).
T1 construct: whole, on cells; also called MADCAM1
T1 sequence (looked up): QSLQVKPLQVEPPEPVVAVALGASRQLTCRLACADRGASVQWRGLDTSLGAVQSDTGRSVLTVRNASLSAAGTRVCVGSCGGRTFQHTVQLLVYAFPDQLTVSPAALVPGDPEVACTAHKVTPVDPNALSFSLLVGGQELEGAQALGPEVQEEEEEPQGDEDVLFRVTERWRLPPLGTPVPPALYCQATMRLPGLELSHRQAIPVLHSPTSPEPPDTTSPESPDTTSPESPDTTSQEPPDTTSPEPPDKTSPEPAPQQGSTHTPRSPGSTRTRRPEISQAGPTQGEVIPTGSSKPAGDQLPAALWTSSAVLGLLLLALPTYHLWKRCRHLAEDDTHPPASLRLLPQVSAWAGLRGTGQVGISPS
Nature of the test: cell binding.

Test [2] addresses T2, mouse MAdCAM expressed on cells (mouse, UniProt Q61826 22-405).
T2 construct: whole, on cells
T2 sequence (looked up): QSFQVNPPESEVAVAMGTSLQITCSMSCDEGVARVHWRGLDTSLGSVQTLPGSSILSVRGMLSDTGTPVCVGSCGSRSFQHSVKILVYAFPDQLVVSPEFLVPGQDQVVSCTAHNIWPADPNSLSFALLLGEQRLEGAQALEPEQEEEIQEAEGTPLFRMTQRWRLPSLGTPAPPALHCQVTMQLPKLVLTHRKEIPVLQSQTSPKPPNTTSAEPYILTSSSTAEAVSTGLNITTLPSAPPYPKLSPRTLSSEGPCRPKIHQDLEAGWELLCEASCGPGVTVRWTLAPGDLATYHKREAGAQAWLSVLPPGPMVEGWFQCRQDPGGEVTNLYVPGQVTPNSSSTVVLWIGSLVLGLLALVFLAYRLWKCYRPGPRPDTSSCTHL
In words: cell binding.

B1: MAdCAM Antibody Table 2 Clone 62 (antibody, human IgG1, V domains shown)
VH: QVQLVQSGAEVKKPGASVKVSCKASGYTFTSYDINWVRQAPGQGLEWMGWINPNSGTTGYAQKFQGRVTMTRDTSTSTVYMELSSLRSEDTAVYYCARSPYYYYGMDVWGQGTTVTVSS
VL: DIQMTQSPSSLSASVGDRVTITCRASHFISRWVAWYQQKPGKAPKLLIYAASTLQSGVPSRFSGSGSGTDFTLTISSLQPEDFATYYCQQSYSGISFGPGTKVDIK
Consider B1, for which the binding result in test [1] is “binds”; in test [2], “no binding”.

B2: MAdCAM Antibody Table 2 Clone 66 (antibody, human IgG1, V domains shown)
VH: QVQLVQSGAEVKKPGASVKVSCKASGYTFTGHYMHWVRQAPGQGLEWMGIINPSGGSTSYAQKFQGRVTMTRDTSTSTVYMELSSLRSEDTAVYYCARDGAWFGEEYYYGMDVWGQGTTVTVSS
VL: DIQMTQSPSSLSASVGDRVTITCRASQGISNWLAWYQQKPGKAPKLLIYDASNLETGVPSRFSGSGSGTDFTLTISSLQPEDFATYYCQQYYSFPLYTFGQGTKVEIK
Regarding B2, the results for the binding result in test [1] and in test [2] were “binds” and “no binding”, respectively.

B3: MAdCAM Antibody Table 2 Clone 67 (antibody, human IgG1, V domains shown)
VH: QVQLVQSGAEVKKPGASVKVSCKASGYTFTGYYMHWVRQAPGQGLEWMGMIYPRDGSTSYAQKFQGRVTMTRDTSTSTVYMELSSLRSEDTAVYYCAMTGWGYGMDVWGKGTTVTVSS
VL: DIQMTQSPSSLSASVGDRVTITCRASQGINNYLAWYQQKPGKAPKLLIYDASTLQSGVPSRFSGSGSGTDFTLTISSLQPEDFATYYCQQSYSAPPTFGQGTKLEIK
In the case of B3, the binding result is listed as “binds” in test [1] and “no binding” in test [2].

B4: MAdCAM Antibody Table 2 Clone 69 (antibody, human IgG1, V domains shown)
VH: QVQLVQSGAEVKKPGASVKVSCKASGYTFTSYYMHWVRQAPGQGLEWMGIIDPSGGSTSYAQKFQGRVTMTRDTSTSTVYMELSSLRSEDTAVYYCAREEWSSGGVGYFDYWGQGTLVTVSS
VL: DIQMTQSPSSLSASVGDRVTITCRASQGISSYLAWYQQKPGKAPKLLIYATSSLQTGVPSRFSGSGSGTDFTLTISSLQPEDFATYYCQQTYSIPITFGQGTRLEIK
Turning to B4, the results for the binding result in test [1] and in test [2] were “binds” and “no binding”, respectively.

B5: MAdCAM Antibody Table 2 Clone 71 (antibody, human IgG1, V domains shown)
VH: QVQLVQSGAEVKKPGASVKVSCKASGYTFTSYYMHWVRQAPGQGLEWMGIINPSGGSTSYAQKFQGRVTMTRDTSTSTVYMELSSLRSEDTAVYYCARDSVAGTGGRYYGMDVWGQGTLVTVSS
VL: DIQMTQSPSSLSASVGDRVTITCRASQGISNYFAWYQQKPGKAPKLLIYAASSLQGGVPSRFSGSGSGTDFTLTISSLQPEDFATYYCQQSYSLPYTFGQGTKLEIK
With B5, the binding result in test [1] is “binds”; in test [2] it was “no binding”.

B6: MAdCAM Antibody Table 2 Clone 70 (antibody, human IgG1, V domains shown)
VH: QVQLVQSGAEVKKPGASVKVSCKASGYPFTDYYMHWVRQAPGQGLEWMGWIKPNSGDTEYAQKFQGRVTMTRDTSTSTVYMELSSLRSEDTAVYYCARDRFVGKPDYYYYGMDVWGQGTMVTVSS
VL: DIQMTQSPSSLSASVGDRVTITCRASQSISVWLAWYQQKPGKAPKLLIYAASSLQSGVPSRFSGSGSGTDFTLTISSLQPEDFATYYCQQSYDTPYTFGQGTKLEIK
B6: the binding result in test [1] was “binds”; in test [2] it was “no binding”.

B7: MAdCAM Antibody Table 2 Clone 68 (antibody, human IgG1, V domains shown)
VH: EVQLLESGGGLVQPGGSLRLSCAASGFTFGDYAMSWVRQAPGKGLEWVAVVSYDGTNKYYADSVKGRFTISRDNSKNTLYLQMNSLRAEDTAVYYCAKDICSSTSCYFDLWGRGTLVTVSS
VL: DIQMTQSPSSLSASVGDRVTITCRASQNINNYVNWYQQKPGKAPKLLIYDASNLETGVPSRFSGSGSGTDFTLTISSLQPEDFATYYCQQANSFPPTFGQGTRLEIK
Take B7: the figures for the binding result in test [1] and in test [2] were “binds” and “no binding”, respectively.

B8: MAdCAM Antibody Table 2 Clone 79 (antibody, human IgG1, V domains shown)
VH: EVQLLESGGGLVKPGGSLRLSCAASGFTFDDYAMHWVRQAPGKGLEWVASITSSSAFIDYAASVKGRFTISRDDSKNTLYLQMNSLKTEDTAVYYCARERVDWNSYFDLWGRGTLVTVSS
VL: EIVMTQSPATLSVSPGERATLSCRASQGISNSYLAWYQQKPGQAPRLLIYGASTRATGIPARFSGSGSGTEFTLTISSLQSEDFAVYYCQQYYTYPPTFGPGTKVDIK
With B8, the binding result in test [1] and in test [2] was “binds” each time.

B9: MAdCAM Antibody Table 2 Clone 75 (antibody, human IgG1, V domains shown)
VH: EVQLLESGGGLVQPGGSLRLSCAASGFTFSDFWMHWVRQAPGKGLEWISYISGDSGYTNYADSVKGRFTISRDNSKNTLYLQMNSLRAEDTAVYYCARDRPYYYYMDVWGKGTTVTVSS
VL: DIQMTQSPSSLSASVGDRVTITCRASQSVSRSLAWYQQKPGKAPKLLIYAASSLQSGVPSRFSGSGSGTDFTLTISSLQPEDFATYYCQQYKSYPVTFGQGTKVEIK
For B9, the binding result in test [1] and in test [2] was “binds” each time.

B10: MAdCAM Antibody Table 2 Clone 77 (antibody, human IgG1, V domains shown)
VH: EVQLLESGGGLVQPGGSLRLSCAASEFTFSNAWMSWVRQAPGKGLEWVASISSTSAYIDYADSVKGRFTISRDNSKNTLYLQMNSLRAEDTAVYYCAREVVGATTFDYWGQGTLVTVSS
VL: DIQMTQSPSSLSASVGDRVTITCRASQSISTWLAWYQQKPGKAPKLLIYAASSLQSGVPSRFSGSGSGTDFTLTISSLQPEDFATYYCQQANAFPPTFGQGTRLEIK
For B10, the binding result in test [1] and in test [2] was “binds” in each case.

B11: MAdCAM Antibody Table 2 Clone 63 (antibody, human IgG1, V domains shown)
VH: EVQLLESGGGLVQPGGSLRLSCAASGFTFNNYGMNWVRQAPGKGLEWVSRINSDGSSTSYADSVKGRFTISRDNSKNTLYLQMNSLRAEDTAVYYCARGAYYYYYMDVWGQGTLVTVSS
VL: EIVMTQSPATLSVSPGERATLSCRASQSVSGSYLAWYQQKPGQAPRLLIYATSSRASGIPARFSGSGSGTEFTLTISSLQSEDFAVYYCQQYYSGLTFGQGTKVEIK
On to B11, for which the binding result was “binds” in test [1] and “no binding” in test [2].

B12: MAdCAM Antibody Table 2 Clone 72 (antibody, human IgG1, V domains shown)
VH: QVQLVQSGAEVKKPGASVKVSCKASGYTFTSYYMHWVRQAPGQGLEWMGVINPIGGTTTYAQKFQGRVTMTRDTSTSTVYMELSSLRSEDTAVYYCASGAPSYYYYGMDVWGQGTLVTVSS
VL: DIQMTQSPSSLSASVGDRVTITCRASQSISSYLNWYQQKPGKAPKLLIYGTSYLATGVPSRFSGSGSGTDFTLTISSLQPEDFATYYCQQSYSTPLTFGQGTKVEIK
Consider B12, for which the binding result was “binds” in test [1] and “no binding” in test [2].

B13: MAdCAM Antibody Table 2 Clone 76 (antibody, human IgG1, V domains shown)
VH: EVQLLESGGGLVQPGGSLRLSCAASGFTFDDYTMHWVRQAPGKGLEWVSDISGSGGSTYYADSVKGRFTISRDNSKNTLYLQMNSLRAEDTAVYYCAKDVVVAGTPLHFDYWGQGTLVTVSS
VL: DIQMTQSPSSLSASVGDRVTITCQASQDISNYLNWYQQKPGKAPKLLIYAASYLQSGVPSRFSGSGSGTDFTLTISSLQPEDFATYYCQQAHNYPITFGQGTRLEIK
As for B13, the binding result in test [1] and in test [2] was “binds” throughout.

B14: MAdCAM Antibody Table 2 Clone 78 (antibody, V domains shown)
VH: QVQLVQSGAEVKKPGSSVKVSCKASGGTFSSYAISWVRQAPGQGLEWMGWMEPHTGNTRYAQKFQGRVTITADESTSTAYMELSSLRSEDTAVYYCAKGGFSWFDPWGQGTLVTVSS
VL: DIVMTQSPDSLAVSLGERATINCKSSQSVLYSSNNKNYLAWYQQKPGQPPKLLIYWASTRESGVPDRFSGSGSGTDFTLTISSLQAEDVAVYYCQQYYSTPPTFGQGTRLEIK
Take B14: the binding result in test [1] and in test [2] was “binds” in each case.

B15: MAdCAM Antibody Table 2 Clone 64 (antibody, human IgG1, V domains shown)
VH: EVQLLESGGGLVQPGGSLRLSCAASGFTFSNSDMNWVRQAPGKGLEWVAHIWNDGSQKYYADSVKGRFTISRDNSKNTLYLQMNSLRAEDTAVYYCARDRTDPGYSSAMDVWGQGTTVTVSS
VL: DIQMTQSPSSLSASVGDRVTITCRASQDIRNYLGWYQQKPGKAPKLLIYDASSLETGVPSRFSGSGSGTDFTLTISSLQPEDFATYYCQQATSLPLTFGGGTKVEIK
Regarding B15, the binding result in test [1] was “binds”; in test [2], “no binding”.

B16: MAdCAM Antibody Table 2 Clone 80 (antibody, human IgG1, V domains shown)
VH: EVQLLESGGGLVQPGGSLRLSCAASGFTFDDYAMHWVRQAPGKGLEWVSAISGSGGSTYYADSVKGRFTISRDNSKNTLYLQMNSLRAEDTAVYYCAKDLGVVVPAALDYWGQGTTVTVSS
VL: DIQMTQSPSSLSASVGDRVTITCQASQDISNHLNWYQQKPGKAPKLLIYDASNLEAGVPSRFSGSGSGTDFTLTISSLQPEDFATYYCQQSYSTPLTFGGGTKVEIK
Consider B16, for which the figures for the binding result in test [1] and in test [2] were “binds” and “no binding”, respectively.

B17: MAdCAM Antibody Table 2 Clone 73 (antibody, human IgG1, V domains shown)
VH: QVQLVQSGAEVKKPGASVKVSCKASGYTFTSNYVHWVRQAPGQGLEWMGRINPHSGDTSYAQKFQGRVTMTRDTSTSTVYMELSSLRSEDTAVYYCARAGQLWSDWYFDLWGRGTLVTVSS
VL: DIQMTQSPSSLSASVGDRVTITCQASQDIRNYLNWYQQKPGKAPKLLIYAATALRTGVPSRFSGSGSGTDFTLTISSLQPEDFATYYCQQSYSHPLTFGQGTKVEIK
As to B17, the binding result in test [1] is reported as “binds”; in test [2], “no binding”.
